The values below come from patent US6506379.

Assay [1] addresses His6-flag-FKBP, no drug added (ethanol alone) (human). Description: phage display affinity enrichment: FRAP(2015-2114) phagemids mixed with pBC control phagemids, 1 uM His6-flag-FKBP with ethanol alone, capture on Ni-NTA agarose, acid elution.
Assay [2] has as its target His6-flag-FKBP in complex with FK506 (human). The assay is described as follows: phage display affinity enrichment: FRAP(2015-2114) phagemids mixed with pBC control phagemids, 1 uM His6-flag-FKBP plus about 1 uM FK506, capture on Ni-NTA agarose, acid elution.
The target of assay [3] is His6-flag-FKBP in complex with rapamycin (human). Description: phage display affinity enrichment: FRAP(2015-2114) phagemids mixed with pBC control phagemids, 1 uM His6-flag-FKBP plus about 1 uM rapamycin, capture on Ni-NTA agarose, acid elution.
Assay [4] has as its target 1FRB-p65(361-550) (human) (UniProt P42345). Description: cell-based or functional assay.

1FRB-p65(361-550) (human), sequence (P42345 other isoform, or with tags, fused parts or gaps): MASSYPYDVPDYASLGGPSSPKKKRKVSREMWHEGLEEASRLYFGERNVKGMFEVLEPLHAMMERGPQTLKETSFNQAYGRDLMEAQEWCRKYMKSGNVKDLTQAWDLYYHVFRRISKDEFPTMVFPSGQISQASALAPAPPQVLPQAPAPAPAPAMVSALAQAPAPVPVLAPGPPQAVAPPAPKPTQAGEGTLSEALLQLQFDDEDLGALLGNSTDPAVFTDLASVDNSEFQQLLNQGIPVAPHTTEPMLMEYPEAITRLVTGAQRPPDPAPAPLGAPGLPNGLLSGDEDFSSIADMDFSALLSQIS
His6-flag-FKBP, no drug added (ethanol alone) (human), sequence (chain, as listed by the source limits assumed): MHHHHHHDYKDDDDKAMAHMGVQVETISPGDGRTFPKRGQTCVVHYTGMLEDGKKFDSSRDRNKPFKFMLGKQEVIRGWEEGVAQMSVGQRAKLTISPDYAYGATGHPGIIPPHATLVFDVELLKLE
His6-flag-FKBP in complex with rapamycin (human), sequence (chain, as listed by the source limits assumed): as above
His6-flag-FKBP in complex with FK506 (human), sequence (chain, as listed by the source limits assumed): as above

With “FRAP (amino acids 2015-2114) displayed on filamentous phagemid particles, from p-CANTAB-AP-FRAP(2015-2114) (from UniProt P03661 215-424)”, the fold enrichment of FRAP phage compared to the starting mixture (carb/chlor cfu ratio) is 1.5 fold in assay [1], 2.4 fold in assay [2] and 271 fold in assay [3].

Consider “ZFHD1-3FKBP in complex with rapamycin (from UniProt P62942 1-107)”, for which, in assay [4], the SEAP activity of the stable clone at 100 nM rapamycin, extended assay (mock transfected cells 47 units) (arbitrary fluorescence units) was over 90000; the SEAP secretion, transiently transfected HT1080 cells (ZFHD1-site SEAP reporter); lowest rapamycin concentration with detectable SEAP came to 0.5 nM; the SEAP secretion, transiently transfected HT1080 cells; rapamycin concentration at peak SEAP amounted to 5 nM.

“ZFHD1-3FKBP, no drug (from UniProt P62942 1-107)” yielded an SEAP activity of the stable clone without rapamycin, extended assay (mock transfected cells 47 units) (arbitrary fluorescence units) in assay [4] of 54.
